Measured values as given in paper PMC9886975, “Ligand recognition mechanism of the human relaxin family peptide receptor 4 (RXFP4)” (Nature Communications, 2023).
Ends that are not written are not given here.

Assays:
RXFP4 = conditions: R23^BA ref 34; R23^BE ref 35; cited from earlier work
From the text: Despite these advances, difficulties in obtaining sufficient quantities of native INSL5 hampered our efforts in further exploring the biology of the peptide and its cognate receptor. […] In addition to peptidic analogs, small molecule modulators have been reported in recent years. […] The N-terminal residues (R5^B to L9^B) adopted a loop that is clasped by a short N-terminal α-helix of the A chain through one disulfide bond (C8^A‒C7^B). W24^B contributed massive polar and nonpolar interactions to stabilize the peptide binding via both side chain indole and the carboxylic acid group. The former made a hydrogen bond with T121^3.32 (superscripts denote Ballesteros–Weinstein numbering[32]), as well as cation- ...

[1] = target: T1, human RXFP4 stably expressed on CHO-K1 cells (hRXFP4-CHO) (human, UniProt Q8TDU9 1-374); test: cell-based or functional assay
T1 sequence (Q8TDU9 whole entry): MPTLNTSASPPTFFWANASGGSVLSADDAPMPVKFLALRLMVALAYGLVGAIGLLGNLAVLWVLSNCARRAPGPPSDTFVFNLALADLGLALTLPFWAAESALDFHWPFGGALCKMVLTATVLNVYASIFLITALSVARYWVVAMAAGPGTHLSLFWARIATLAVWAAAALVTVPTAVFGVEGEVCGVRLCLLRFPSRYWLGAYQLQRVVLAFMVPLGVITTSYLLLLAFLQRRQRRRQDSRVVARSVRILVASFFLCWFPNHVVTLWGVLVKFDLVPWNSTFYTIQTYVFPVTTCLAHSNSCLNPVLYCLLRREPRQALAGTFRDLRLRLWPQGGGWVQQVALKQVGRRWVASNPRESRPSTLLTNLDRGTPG

[2] = target: human RXFP4 H299A mutant (human) (UniProt Q8TDU9)
human RXFP4 H299A mutant (human), sequence (Q8TDU9 whole entry H299A): as the sequence (Q8TDU9 whole entry) above, with H299A counted along it

[3] = target: T1, human RXFP4 stably expressed on CHO-K1 …; test: competitive binding of a europium-labelled ligand on cells (time-resolved fluorescence); CHO-K1 cells stably transfected with RXFP4 on poly-L-lysine 96-well plates; 5 nM Eu-R3/I5 with increasing amounts of ligand; one-site binding curve; conditions: one partner purified

Molecule: R23^BA: INSL5 with R23^B replaced by alanine (Insulin-like peptide INSL5 B … KESVRLCGLEYIRTVIYICASSAW; Insulin-like peptide INSL5 A … QDLQTLCCTDGCSMTDLSALC; disulfide (positions not given here); ends not checked; also: three disulfide bonds, places not given here; UniProt Q9Y5Q6 23-46; Q9Y5Q6 115-135, looked up, variant R23A)
- potency of R23^B mutant vs INSL5 (RXFP4): reduced potencies

B1: recombinant two-chain human insulin-like peptide 5 (INSL5) (ligand)
chain 1: QDLQTLCCTDGCSMTDLSALC
chain 2: KESVRLCGLEYIRTVIYICASSRW
- inhibition of forskolin-induced cAMP responses in CHO-K1 cells stably transfected with RXFP4 (pEC50) [1]: 8.8
- INSL5-induced cAMP response in HEK293T cells transfected with the mutant receptor: reduction of Emax against wild type [2]: 70%
- pKi [3]: 8.19
